Experimental data: the RNAGym collection of RNA variant scans (doi:10.1073/pnas.2313332121)

B1: TPR t1 (parent)
chain: GACCAAUCUGCCCUCAGAGCUCGAGAACAUCUUCGGAUGCAGAGGAGGCAGGCUUCGGUGGCGCGAUAGCGCCAACGUCCUCAACCUCCAAUGCAUCCCACCACAUGAUGAUGCCUGAAGAGCCUUGGUUUUUUG

Variants of: B1
Assay: polymerase ribozyme fitness, log enrichment relative to wild type (log ratio); higher = more active; in vitro selection for triplet polymerase activity
Summary of the method: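 Fitness measures genotype enrichment against wild-type enrichment on a logarithmic scale, with inverse-variance-weighted averaging of replicates. The logarithm is base 2, and genotypes were kept only with ≥10 input reads and ≥1 read per output in Illumina sequencing. The sequenced libraries came from one triplicate in vitro selection round, including frozen incubation at −7 °C, of PCR-built, transcribed mutant libraries of each subunit of a heterodimeric triplet polymerase ribozyme.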

Variant	polymerase ribozyme fitness (log ratio)
C22G C53G G63C G113U	-5.64
C22U G113U	-5.27
C22U G113A	-4.09
A24C G61A	-6.26
C22G G48A G69C U78A U87C	-5.69
C22G A27C U59A A95G	-3.9
C22G C76U G77C C124U U131G	-3.47
C22U G48C C53G C56A	-4.86
G23C A46U C86A A119U G120A	-6.31
C22A C72G A83G C115A	-5.56
C22A G39A	-5.08
C22G U132A	-3.21
C22A G61A	-4.54
A24C C31G U32G C62U C114G	-8.07
C22U A37G G61C C64A U112C U126G G128A	-6.8
C22G A103U	-4.6
C22G G51A C72G	-4.82
C22A U129G	-6.22
C22A G51A G71C A111C	-6.96
C22U A74U C101A	-5.04
G23U A26G G63U C82G U133A	-7.09
C22U G45U	-4.99
C22U G45A	-4.02
C22G C64U U112G	-2.89

Variant	polymerase ribozyme fitness (log ratio)
C22U A37U G69U U78C G110U C115A C124G	-3.86
C22G A111C	-3.66
G23C A121G	-6.91
C22U U129A	-5.14
C22U C53G	-4.85
C22U C53A	-4.52
C22U U78A U106G G120C	-5.48
C22A G48U C49U C62G G69A A108G A111C	-6.98
A24G C34A C53U U87G U132A	-4.54
C22A C73A	-4.25
C22G U106G	-3.47
G23A A121U	-2.19
G23U G42U U54G C64G G93C G117C	-6.49
A24G G36U C56U C101U	-3.37
C22G C40G G45A G47C C72G U112G U132A	-4.49
C22U U55G C72A C79A C123A	-6.59
G23A G63C	-3.02
G23A A50U	-5.56
C22A U59A	-5.52
A24G C115U	-2.59
C22G U38G U87A C98G U112C C114A	-6.53
A24G C56G G113A G120A G128A	-7.42
C22G C72G	-2.12
C22A G52A G60A G117U C123U U131C	-6.69

Variant	polymerase ribozyme fitness (log ratio)
G23C G69U	-5.11
A24G A27G G120A	-3.91
A24G C53U C62U C89U G113A	-5.19
C22G G57U U92C A100U C104A G113A	-7.69
C22G G36C G42U A91U U112A U129G	-4.65
G23A G45A	-5.16
C22G A50G C73G C94A G120C	-4.89
C22U U96A	-4.62
C22A G44U G93A C124U	-4.53
G23A C123A	-4.67
A24G G44U C64U U133G	-3.26
C22G A50C A75G	-3.94
C22G C34U U38A U54C A83C U106G U109A C114G	-6.61
C22U C64U G77A	-4.03
C22A U55C	-4.37
C22A U55G	-4.85
G23C C53U U92G C123U	-8.04
C22U U92G C94A C104G U109G G122A C123A U125A	-7.36
C22G G63A	-4.12
A24C G35A U55G C115U G127U	-6.12
C22A C88U	-4.66
C22U C64U	-3.81
C22G G51A U81A C115U U130A	-5.32
C22A G52U A66U U112G	-5.88

Variant	polymerase ribozyme fitness (log ratio)
C22G G61U C124A	-1.97
C22G U32G C70G C124A	-5.41
C22U G36A C76G	-5.14
C22U C114A	-4.76
G23U G58A G60C G120C	-7.23
C22U G57A G63U	-5.87
C22U A46C	-3.65
C22A U87A	-4.86
C22G G69U U112A A118U	-0.675
C22A G36A U55C U96A A111U	-6.03
C22A G44C A46U C101A A121C	-4.64
C22U C72G	-4.14
C22G U38G A43G G113U A119G	-4.22
G23C C70A G113U G117C	-6.09
C22G G117A A119G	-1.55
G23A C56U	-3.66
C22U C101A	-4.34
A24G C49G A121C	-0.875
G23C A26G C82U G120C	-4.02
C22U C72G C124U	-3.08
A24G A84U	-1.7
A24G C40U G71A C114A	-5.13
C22U U130G	-3.78
G23A C56U G58C C70U C104G G122A	-7.86

Variant	polymerase ribozyme fitness (log ratio)
G23A C97U A121U	-4.57
A24C G39A U55C C104A C124G	-5.87
C22U G45U G48C C102A C124G G128A	-6.17
C22U A95G	-3.7
C22U C56U C114U	-4.27
G23U C73G	-4.76
A24G A90C	-3.03
A24G C72U	-1.6
C22G G61C A68C C123U	-6.92
C22A G57U U106A A118G U133C	-3.51
A24C G36U A37U G42U G61A C79A G110C C123U	-7.34
A24C G63C C79G A90C C124A	-7.24
C22U G120A	-3.35
C22G A41C G44C C79G A90C	-6.07
C22U C56A G69U U78C	-3.41
C22A G93U	-6.27
A24G G39C U92G C104U	-5.73
C22U C34U A83C C124G	-5.96
C22G G48C C85G U112G	-3
G23U G51U C56A G63C G69C C114A A121U	-5.92
C22G G39A C56U	-3.12
C22G G23A C89U C114U	-4.41
C22G C73A G93A	-4.3
C22G G110C C123G	-5.98

Variant	polymerase ribozyme fitness (log ratio)
G23C U30C G42U G69A U78G A105C C115G	-7.04
C22A U116C A121G U129C	-5.72
A24G A27G	-4.03
C22G G93C A103G G110U	-6.45
A24G C49G	-1.9
C22U G39U G60C C76U U78A C115G G127C	-6.22
C22A C101U U106C	-5.01
C22A G60C C73U	-5.64
C22U G48U G71U C94A	-6.57
C22U A50G C104U	-3.86
C22G G45A C88G	-4.78
C22G C73U	-2.27
C22G G69A A90U U106A A111U	-4.92
C22U C28U C88G	-7.29
G23U C34A G47A C53G G110C U129G	-7.48
A24C C124A	-5.24
A24G A26G A90C C115U	-2.12
G23A G71A	-5.75
C22U G45U C49A U106A	-5.79
C22G A37U G69U U87G	-2.42
G23U C70A A91G G107U C114U	-5.99
C22G A46U C76U C98U	-5.32
C22U A46C G61A	-4.91
C22G A26C C94A A95U A119G	-4.33

Variant	polymerase ribozyme fitness (log ratio)
G23A C73A	-5.86
G23A C73G	-3.9
C22A G36U U55C G120A	-4.54
A24G A41C A46U C53A U125A	-4.79
A24G C73A	-1.74
C22U C56A	-5.17
A24G A43G	-3.13
C22U A90G C101A C114A	-5.96
C22G C49A G117U	-3.11
C22G G42U	-4.63
C22G G48C G77A C85G U112G	-3.5
C22U G45U C72A	-4.82
C22U G42U G58A C70U	-5.05
G23C G69C C94G U96A G113U G120C	-7.12
A24G C97U G120U	-2.28
C22G C53U C85U U112A	-3.51
A24C C73A	-6.46
C22G G45U C56G A111U	-3.8
G23A G117U	-7.76
C22U A84C	-4.07
G23U G51A C70A C101A G110A C114A	-6.74
C22G U87A G113U	-6.04
G23C G60A G77C C98G A119U	-7.44
